Source: patent US20130336893A1 (Sanofi, published 2013)
*1 amine or outer side, *2 acyl side, *3 side chain or, on linkers, in order; H or OH if unused. Where no end group is shown, it is not given here. Side-chain parts run from the residue outwards. [ ]: non-standard residue; d: D form. The star is where a group is joined. γGlu = O=C(O)[C@H](CCC(=O)[*:2])N[*:1]; Palmitoyl = CCCCCCCCCCCCCCCC(=O)*; Aib = CC(C)(N)C(=O)O

B1: SEQ ID NO: (65) (peptide)
peptide: H[dS]QGTFTSDLSKQMDSRRAQDFIEWLKSGGPSSGAPPPSK([γGlu-Palmitoyl])-NH2
modifications: N-terminus assumed
SMILES: CCCCCCCCCCCCCCCC(=O)N[C@@H](CCC(=O)NCCCC[C@H](NC(=O)[C@H](CO)NC(=O)[C@@H]1CCCN1C(=O)[C@@H]1CCCN1C(=O)[C@@H]1CCCN1C(=O)[C@H](C)NC(=O)CNC(=O)[C@H](CO)NC(=O)[C@H](CO)NC(=O)[C@@H]1CCCN1C(=O)CNC(=O)CNC(=O)[C@H](CO)NC(=O)[C@H](CCCCN)NC(=O)[C@H](CC(C)C)NC(=O)[C@H](Cc1c[nH]c2ccccc12)NC(=O)[C@H](CCC(=O)O)NC(=O)[C@@H](NC(=O)[C@H](Cc1ccccc1)NC(=O)[C@H](CC(=O)O)NC(=O)[C@H](CCC(N)=O)NC(=O)[C@H](C)NC(=O)[C@H](CCCNC(=N)N)NC(=O)[C@H](CCCNC(=N)N)NC(=O)[C@H](CO)NC(=O)[C@H](CC(=O)O)NC(=O)[C@H](CCSC)NC(=O)[C@H](CCC(N)=O)NC(=O)[C@H](CCCCN)NC(=O)[C@H](CO)NC(=O)[C@H](CC(C)C)NC(=O)[C@H](CC(=O)O)NC(=O)[C@H](CO)NC(=O)[C@@H](NC(=O)[C@H](Cc1ccccc1)NC(=O)[C@@H](NC(=O)CNC(=O)[C@H](CCC(N)=O)NC(=O)[C@@H](CO)NC(=O)[C@@H](N)Cc1c[nH]cn1)[C@@H](C)O)[C@@H](C)O)[C@@H](C)CC)C(N)=O)C(=O)O
B2: SEQ ID NO: (61) (peptide)
peptide: H[dS]QGTFTSDLSKQMESRRAQDFIEWLKNGGPSSGAPPPSK([γGlu-Palmitoyl])-NH2
modifications: N-terminus assumed
SMILES: CCCCCCCCCCCCCCCC(=O)N[C@@H](CCC(=O)NCCCC[C@H](NC(=O)[C@H](CO)NC(=O)[C@@H]1CCCN1C(=O)[C@@H]1CCCN1C(=O)[C@@H]1CCCN1C(=O)[C@H](C)NC(=O)CNC(=O)[C@H](CO)NC(=O)[C@H](CO)NC(=O)[C@@H]1CCCN1C(=O)CNC(=O)CNC(=O)[C@H](CC(N)=O)NC(=O)[C@H](CCCCN)NC(=O)[C@H](CC(C)C)NC(=O)[C@H](Cc1c[nH]c2ccccc12)NC(=O)[C@H](CCC(=O)O)NC(=O)[C@@H](NC(=O)[C@H](Cc1ccccc1)NC(=O)[C@H](CC(=O)O)NC(=O)[C@H](CCC(N)=O)NC(=O)[C@H](C)NC(=O)[C@H](CCCNC(=N)N)NC(=O)[C@H](CCCNC(=N)N)NC(=O)[C@H](CO)NC(=O)[C@H](CCC(=O)O)NC(=O)[C@H](CCSC)NC(=O)[C@H](CCC(N)=O)NC(=O)[C@H](CCCCN)NC(=O)[C@H](CO)NC(=O)[C@H](CC(C)C)NC(=O)[C@H](CC(=O)O)NC(=O)[C@H](CO)NC(=O)[C@@H](NC(=O)[C@H](Cc1ccccc1)NC(=O)[C@@H](NC(=O)CNC(=O)[C@H](CCC(N)=O)NC(=O)[C@@H](CO)NC(=O)[C@@H](N)Cc1c[nH]cn1)[C@@H](C)O)[C@@H](C)O)[C@@H](C)CC)C(N)=O)C(=O)O
B3: SEQ ID NO: (62) (peptide)
peptide: H[Aib]QGTFTSDLSKQMESRRAQDFIEWLKNGGPSSGAPPPSK([γGlu-Palmitoyl])-NH2
modifications: N-terminus assumed
SMILES: CCCCCCCCCCCCCCCC(=O)N[C@@H](CCC(=O)NCCCC[C@H](NC(=O)[C@H](CO)NC(=O)[C@@H]1CCCN1C(=O)[C@@H]1CCCN1C(=O)[C@@H]1CCCN1C(=O)[C@H](C)NC(=O)CNC(=O)[C@H](CO)NC(=O)[C@H](CO)NC(=O)[C@@H]1CCCN1C(=O)CNC(=O)CNC(=O)[C@H](CC(N)=O)NC(=O)[C@H](CCCCN)NC(=O)[C@H](CC(C)C)NC(=O)[C@H](Cc1c[nH]c2ccccc12)NC(=O)[C@H](CCC(=O)O)NC(=O)[C@@H](NC(=O)[C@H](Cc1ccccc1)NC(=O)[C@H](CC(=O)O)NC(=O)[C@H](CCC(N)=O)NC(=O)[C@H](C)NC(=O)[C@H](CCCNC(=N)N)NC(=O)[C@H](CCCNC(=N)N)NC(=O)[C@H](CO)NC(=O)[C@H](CCC(=O)O)NC(=O)[C@H](CCSC)NC(=O)[C@H](CCC(N)=O)NC(=O)[C@H](CCCCN)NC(=O)[C@H](CO)NC(=O)[C@H](CC(C)C)NC(=O)[C@H](CC(=O)O)NC(=O)[C@H](CO)NC(=O)[C@@H](NC(=O)[C@H](Cc1ccccc1)NC(=O)[C@@H](NC(=O)CNC(=O)[C@H](CCC(N)=O)NC(=O)C(C)(C)NC(=O)[C@@H](N)Cc1c[nH]cn1)[C@@H](C)O)[C@@H](C)O)[C@@H](C)CC)C(N)=O)C(=O)O
B4: SEQ ID NO: (64) (peptide)
peptide: H[dS]QGTFTSDLSKQMESRRAQDFIEWLKNAGPSSGAPPPSK([γGlu-Palmitoyl])-NH2
modifications: N-terminus assumed
SMILES: CCCCCCCCCCCCCCCC(=O)N[C@@H](CCC(=O)NCCCC[C@H](NC(=O)[C@H](CO)NC(=O)[C@@H]1CCCN1C(=O)[C@@H]1CCCN1C(=O)[C@@H]1CCCN1C(=O)[C@H](C)NC(=O)CNC(=O)[C@H](CO)NC(=O)[C@H](CO)NC(=O)[C@@H]1CCCN1C(=O)CNC(=O)[C@H](C)NC(=O)[C@H](CC(N)=O)NC(=O)[C@H](CCCCN)NC(=O)[C@H](CC(C)C)NC(=O)[C@H](Cc1c[nH]c2ccccc12)NC(=O)[C@H](CCC(=O)O)NC(=O)[C@@H](NC(=O)[C@H](Cc1ccccc1)NC(=O)[C@H](CC(=O)O)NC(=O)[C@H](CCC(N)=O)NC(=O)[C@H](C)NC(=O)[C@H](CCCNC(=N)N)NC(=O)[C@H](CCCNC(=N)N)NC(=O)[C@H](CO)NC(=O)[C@H](CCC(=O)O)NC(=O)[C@H](CCSC)NC(=O)[C@H](CCC(N)=O)NC(=O)[C@H](CCCCN)NC(=O)[C@H](CO)NC(=O)[C@H](CC(C)C)NC(=O)[C@H](CC(=O)O)NC(=O)[C@H](CO)NC(=O)[C@@H](NC(=O)[C@H](Cc1ccccc1)NC(=O)[C@@H](NC(=O)CNC(=O)[C@H](CCC(N)=O)NC(=O)[C@@H](CO)NC(=O)[C@@H](N)Cc1c[nH]cn1)[C@@H](C)O)[C@@H](C)O)[C@@H](C)CC)C(N)=O)C(=O)O
B5: SEQ ID NO: (59) (peptide)
peptide: H[Aib]QGTFTSDLSKQMDSRRAQDFIEWLKNGGPSSGAPPPSK([γGlu-Palmitoyl])-NH2
modifications: N-terminus assumed
SMILES: CCCCCCCCCCCCCCCC(=O)N[C@@H](CCC(=O)NCCCC[C@H](NC(=O)[C@H](CO)NC(=O)[C@@H]1CCCN1C(=O)[C@@H]1CCCN1C(=O)[C@@H]1CCCN1C(=O)[C@H](C)NC(=O)CNC(=O)[C@H](CO)NC(=O)[C@H](CO)NC(=O)[C@@H]1CCCN1C(=O)CNC(=O)CNC(=O)[C@H](CC(N)=O)NC(=O)[C@H](CCCCN)NC(=O)[C@H](CC(C)C)NC(=O)[C@H](Cc1c[nH]c2ccccc12)NC(=O)[C@H](CCC(=O)O)NC(=O)[C@@H](NC(=O)[C@H](Cc1ccccc1)NC(=O)[C@H](CC(=O)O)NC(=O)[C@H](CCC(N)=O)NC(=O)[C@H](C)NC(=O)[C@H](CCCNC(=N)N)NC(=O)[C@H](CCCNC(=N)N)NC(=O)[C@H](CO)NC(=O)[C@H](CC(=O)O)NC(=O)[C@H](CCSC)NC(=O)[C@H](CCC(N)=O)NC(=O)[C@H](CCCCN)NC(=O)[C@H](CO)NC(=O)[C@H](CC(C)C)NC(=O)[C@H](CC(=O)O)NC(=O)[C@H](CO)NC(=O)[C@@H](NC(=O)[C@H](Cc1ccccc1)NC(=O)[C@@H](NC(=O)CNC(=O)[C@H](CCC(N)=O)NC(=O)C(C)(C)NC(=O)[C@@H](N)Cc1c[nH]cn1)[C@@H](C)O)[C@@H](C)O)[C@@H](C)CC)C(N)=O)C(=O)O
B6: SEQ ID NO: (71) (peptide)
peptide: H[dS]QGTFTSDLSKQMDSRRAQDFIEWLKNTGPSSGAPPPSK([γGlu-Palmitoyl])-NH2
modifications: N-terminus assumed
SMILES: CCCCCCCCCCCCCCCC(=O)N[C@@H](CCC(=O)NCCCC[C@H](NC(=O)[C@H](CO)NC(=O)[C@@H]1CCCN1C(=O)[C@@H]1CCCN1C(=O)[C@@H]1CCCN1C(=O)[C@H](C)NC(=O)CNC(=O)[C@H](CO)NC(=O)[C@H](CO)NC(=O)[C@@H]1CCCN1C(=O)CNC(=O)[C@@H](NC(=O)[C@H](CC(N)=O)NC(=O)[C@H](CCCCN)NC(=O)[C@H](CC(C)C)NC(=O)[C@H](Cc1c[nH]c2ccccc12)NC(=O)[C@H](CCC(=O)O)NC(=O)[C@@H](NC(=O)[C@H](Cc1ccccc1)NC(=O)[C@H](CC(=O)O)NC(=O)[C@H](CCC(N)=O)NC(=O)[C@H](C)NC(=O)[C@H](CCCNC(=N)N)NC(=O)[C@H](CCCNC(=N)N)NC(=O)[C@H](CO)NC(=O)[C@H](CC(=O)O)NC(=O)[C@H](CCSC)NC(=O)[C@H](CCC(N)=O)NC(=O)[C@H](CCCCN)NC(=O)[C@H](CO)NC(=O)[C@H](CC(C)C)NC(=O)[C@H](CC(=O)O)NC(=O)[C@H](CO)NC(=O)[C@@H](NC(=O)[C@H](Cc1ccccc1)NC(=O)[C@@H](NC(=O)CNC(=O)[C@H](CCC(N)=O)NC(=O)[C@@H](CO)NC(=O)[C@@H](N)Cc1c[nH]cn1)[C@@H](C)O)[C@@H](C)O)[C@@H](C)CC)[C@@H](C)O)C(N)=O)C(=O)O

The binders below were run against human glucagon receptor (human, UniProt P47871 26-477) (assay: cell-based or functional assay).
human glucagon receptor, sequence (P47871 26-477): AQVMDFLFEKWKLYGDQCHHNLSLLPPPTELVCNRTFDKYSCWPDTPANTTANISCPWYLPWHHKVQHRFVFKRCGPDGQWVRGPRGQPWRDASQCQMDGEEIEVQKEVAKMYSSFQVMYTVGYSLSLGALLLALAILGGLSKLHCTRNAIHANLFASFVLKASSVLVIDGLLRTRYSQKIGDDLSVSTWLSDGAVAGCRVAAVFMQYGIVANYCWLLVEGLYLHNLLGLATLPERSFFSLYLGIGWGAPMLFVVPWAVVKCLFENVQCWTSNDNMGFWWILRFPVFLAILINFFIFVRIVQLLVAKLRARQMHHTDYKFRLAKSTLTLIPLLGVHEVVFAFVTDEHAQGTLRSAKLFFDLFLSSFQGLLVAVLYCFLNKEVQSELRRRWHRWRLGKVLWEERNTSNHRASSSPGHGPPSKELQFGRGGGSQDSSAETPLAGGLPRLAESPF
B1 was tested, and the “EC50 hGlucagonR (cAMP formation)” value was 5.7 pM. In the case of B2, the “EC50 hGlucagonR (cAMP formation)” value is reported as 30.4 pM. In the case of B3, the “EC50 hGlucagonR (cAMP formation)” value is reported as 130 pM. For B4, the “EC50 hGlucagonR (cAMP formation)” value was 67 pM. In the case of B5, the “EC50 hGlucagonR (cAMP formation)” value is reported as 40.9 pM. For HGEGTFTSDLSKQMDSRRAQDFIEWLKNGGPSSGAPPPS-NH2 [SEQ ID NO: (4)], the “EC50 hGlucagonR (cAMP formation)” value was 565000 pM.

The binders below were run against human GLP-1 receptor (human, UniProt P43220 24-463) (assay: cell-based or functional assay).
With HSQGTFTSDLSKQMDSRRAQDFIEWLKNGGPSSGAPPPK([γGlu-Palmitoyl])-NH2 [SEQ ID NO: (6)] the “EC50 hGLP-1R (cAMP formation)” value was 3.1 pM. For B1, the “EC50 hGLP-1R (cAMP formation)” value was 15 pM. B2 was tested, and the “EC50 hGLP-1R (cAMP formation)” value was 4.2 pM. In the case of B3, the “EC50 hGLP-1R (cAMP formation)” value is reported as 6.3 pM. In the case of B6, the “EC50 hGLP-1R (cAMP formation)” value is reported as 5.6 pM. H[dS]QGTFTSDLSKQMDSRRAQDFIEWLKN[dA]GPSSGAPPPSK([γGlu-Palmitoyl])-NH2 [SEQ ID NO: (68)] was tested, and the “EC50 hGLP-1R (cAMP formation)” value was 12.3 pM. For B4, the “EC50 hGLP-1R (cAMP formation)” value was 21.9 pM. B5 was tested, and the “EC50 hGLP-1R (cAMP formation)” value was 2.9 pM. In the case of H[dS]QGTFTSDLSKQMDSRRAQDFIEWLKNAGPSSGAPPPSK([γGlu-Palmitoyl])-NH2 [SEQ ID NO: (67)], the “EC50 hGLP-1R (cAMP formation)” value is reported as 21.5 pM. HGEGTFTSDLSKQMDSRRAQDFIEWLKNGGPSSGAPPPS-NH2 [SEQ ID NO: (4)] was tested, and the “EC50 hGLP-1R (cAMP formation)” value was 17.4 pM.
